Test results published in publication PMC3402500, “Genes for Carbon Metabolism and the ToxA Virulence Factor in Pseudomonas aeruginosa Are Regulated through Molecular Interactions of PtxR and PtxS” (PLoS ONE, 2012).

B3: PtxR (natural protein)
chain: MSAALERLNHLNLNHLYAFVAVAEHNSFTAAAEALGLSKSLLSEQLRRLEADLGIQLLTRTTRRMTLTDRGELLFGVAQRMLGELDGALSDVRDLQGEPSGRLRITAPQDFVKWHISSVSAAFIRQFPKVQVEMLADDQFSDLVGQRIDLAVRIGWPRDSGLHASKLCDFQQVAVATPGYLAGLPPVLQPHDLARCEWIGHTRLSTPWTWTFERQRERATVQTRGRLLANNTLAVYRLVLDGAGVSVLPSFLVAREIARGRLVRLLPGWRLPQGGIYALYPSARYMPVRVRAFIESLREHLGREPFRLAQSE
notes: PtxR, LysR-type transcriptional regulator of Pseudomonas aeruginosa PAO1; ptxR gene amplified from chromosomal DNA and cloned NheI/XhoI into pET24b(+); The NheI/XhoI cloning into pET24b(+) may add a few vector residues at both ends; source: E. coli BL21 (DE3), purified (His-Trap chelating column); not shown: His6, C-terminal, kept
B4: PtxS (natural protein)
chain: MNGSVLPSRGRVTINQVAEAAGVSKASVSRYIGGDRQLLADATARRIERAIDQLDYRPNQMARGLKRGRTRLIGMLVADILNPYSVAVMHGVETACREHGYSLVVCNTDRDDEQERHHLAALQSYNVEGLIVNTLGHHPGELRALHRELPMVLVDRQLAELDTDLVGLDNADAVEQALDHLQHRGFRDILLVTEPLDGTSSRIERVQAFNASIGRRPALKGQVLQTDDFFRDGLRAFLSASGPGPKALFTCNGVATLCATRQLRDLGCRLFDEVGLLALDELDWYPLVGSGITALAQPTDEIGRTAFERLLARLEGDREPARRVTFPAQLIVRGSTHPRG
notes: PtxS, LacI family transcriptional regulator of Pseudomonas aeruginosa PAO1; ptxS gene amplified from chromosomal DNA and cloned NheI/XhoI into pET24b(+); The NheI/XhoI cloning into pET24b(+) may add a few vector residues at both ends; source: E. coli BL21 (DE3), purified (His-Trap chelating column); not shown: His6, C-terminal, kept

How the values were obtained:
[1] = biological target: T1, PtxR (Pseudomonas aeruginosa PAO1) (UniProt P72131); assay: EMSA; settings: ITC: 50 mM HEPES pH 7.9, 300 mM NaCl, 1 mM DTT, 10% glycerol, 20 C. EMSA/footprint: 50 mM Tris-HCl pH 7.5, 10 mM NaCl, 0.5 M Mg acetate (so in the source), 0.1 mM …
T1 sequence: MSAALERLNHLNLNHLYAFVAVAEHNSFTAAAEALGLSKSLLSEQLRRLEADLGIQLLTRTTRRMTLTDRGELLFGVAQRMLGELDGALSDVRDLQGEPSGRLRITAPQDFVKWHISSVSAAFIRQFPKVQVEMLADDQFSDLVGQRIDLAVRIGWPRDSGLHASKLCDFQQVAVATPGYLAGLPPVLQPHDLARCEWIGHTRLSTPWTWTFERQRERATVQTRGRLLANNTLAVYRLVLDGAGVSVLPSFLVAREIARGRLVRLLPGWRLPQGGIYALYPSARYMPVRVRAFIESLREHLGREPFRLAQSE

[2] = biological target: T2, PtxS (Pseudomonas aeruginosa PAO1) (UniProt G3XD97); assay: EMSA; settings: ITC: 50 mM HEPES pH 7.9, 300 mM NaCl, 1 mM DTT, 10% glycerol, 20 C. EMSA/footprint: 50 mM Tris-HCl pH 7.5, 10 mM NaCl, 0.5 M Mg acetate (so in the source), 0.1 mM …
T2 sequence: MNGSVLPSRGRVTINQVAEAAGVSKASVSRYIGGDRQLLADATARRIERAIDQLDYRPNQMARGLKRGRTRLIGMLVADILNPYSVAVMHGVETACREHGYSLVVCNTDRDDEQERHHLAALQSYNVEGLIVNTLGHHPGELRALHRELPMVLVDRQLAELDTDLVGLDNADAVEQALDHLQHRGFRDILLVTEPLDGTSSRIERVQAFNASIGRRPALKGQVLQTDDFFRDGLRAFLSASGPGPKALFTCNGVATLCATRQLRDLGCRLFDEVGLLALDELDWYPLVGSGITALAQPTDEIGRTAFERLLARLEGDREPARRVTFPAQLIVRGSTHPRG

[3] = biological target: T1, PtxR (Pseudomonas aeruginosa PAO1); assay: DNase I footprinting; settings: ITC: 50 mM HEPES pH 7.9, 300 mM NaCl, 1 mM DTT, 10% glycerol, 20 C. EMSA/footprint: 50 mM Tris-HCl pH 7.5, 10 mM NaCl, 0.5 M Mg acetate (so in the source), 0.1 mM …
[4] = biological target: T3, PtxR;PtxS (Pseudomonas aeruginosa PAO1;Pseudomonas aeruginosa PAO1) (UniProt P72131+G3XD97); assay: DNase I footprinting; settings: ITC: 50 mM HEPES pH 7.9, 300 mM NaCl, 1 mM DTT, 10% glycerol, 20 C. EMSA/footprint: 50 mM Tris-HCl pH 7.5, 10 mM NaCl, 0.5 M Mg acetate (so in the source), 0.1 mM …
T3 sequence 1: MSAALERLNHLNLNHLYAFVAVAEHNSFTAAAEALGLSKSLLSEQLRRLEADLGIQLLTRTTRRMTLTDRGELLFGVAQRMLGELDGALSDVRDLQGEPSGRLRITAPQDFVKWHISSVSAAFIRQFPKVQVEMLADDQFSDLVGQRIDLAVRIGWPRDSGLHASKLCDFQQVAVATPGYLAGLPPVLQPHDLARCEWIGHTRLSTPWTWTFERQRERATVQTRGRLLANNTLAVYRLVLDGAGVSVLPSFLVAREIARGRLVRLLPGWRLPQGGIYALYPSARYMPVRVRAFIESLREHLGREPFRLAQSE
T3 sequence 2: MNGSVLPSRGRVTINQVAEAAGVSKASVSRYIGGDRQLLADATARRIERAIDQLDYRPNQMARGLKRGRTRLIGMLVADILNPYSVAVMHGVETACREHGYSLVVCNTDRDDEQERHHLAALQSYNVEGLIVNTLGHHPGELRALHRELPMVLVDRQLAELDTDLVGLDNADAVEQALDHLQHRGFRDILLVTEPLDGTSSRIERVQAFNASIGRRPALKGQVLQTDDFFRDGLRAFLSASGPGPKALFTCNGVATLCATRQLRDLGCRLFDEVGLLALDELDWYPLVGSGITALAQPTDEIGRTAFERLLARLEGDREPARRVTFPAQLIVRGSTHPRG

[5] = biological target: T2, PtxS (Pseudomonas aeruginosa PAO1); assay: DNase I footprinting; settings: ITC: 50 mM HEPES pH 7.9, 300 mM NaCl, 1 mM DTT, 10% glycerol, 20 C. EMSA/footprint: 50 mM Tris-HCl pH 7.5, 10 mM NaCl, 0.5 M Mg acetate (so in the source), 0.1 mM …
PtxR [6] = biological target: T4, PtxR (Pseudomonas aeruginosa PAO1, UniProt P72131 1-312); assay: ITC; ITC: 50 mM HEPES pH 7.9, 300 mM NaCl, 1 mM DTT, 10% glycerol, 20 C. EMSA/footprint: 50 mM Tris-HCl pH 7.5, 10 mM NaCl, 0.5 M Mg acetate (so in the source), 0.1 mM EDTA, 1 mM DTT, 5% glycerol, 30 C; EMSA with 20 ug/ml poly(dIC), 200 ug/ml BSA; settings: protein: recombinant; tags: C-terminal His6 (pET24b); chain copies: 4; blunt
T4 sequence: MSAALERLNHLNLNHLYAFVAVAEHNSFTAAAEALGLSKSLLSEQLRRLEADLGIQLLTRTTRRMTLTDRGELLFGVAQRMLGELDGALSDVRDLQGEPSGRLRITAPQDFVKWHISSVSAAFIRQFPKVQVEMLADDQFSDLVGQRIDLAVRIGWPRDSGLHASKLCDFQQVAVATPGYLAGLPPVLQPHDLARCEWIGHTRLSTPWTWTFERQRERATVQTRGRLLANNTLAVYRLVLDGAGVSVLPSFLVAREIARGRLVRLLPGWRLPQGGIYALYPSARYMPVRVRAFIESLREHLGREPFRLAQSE

PtxR K39A = PtxR K39A (Pseudomonas aeruginosa PAO1, UniProt P72131 1-312, K39A); assay: as above; settings: protein: recombinant; tags: C-terminal His6 (pET24b); chain copies: 4; blunt
PtxS [7] = biological target: T5, PtxS (Pseudomonas aeruginosa PAO1, UniProt G3XD97 1-340); assay: as above; settings: protein: recombinant; tags: C-terminal His6 (pET24b); chain copies: 2; blunt
T5 sequence: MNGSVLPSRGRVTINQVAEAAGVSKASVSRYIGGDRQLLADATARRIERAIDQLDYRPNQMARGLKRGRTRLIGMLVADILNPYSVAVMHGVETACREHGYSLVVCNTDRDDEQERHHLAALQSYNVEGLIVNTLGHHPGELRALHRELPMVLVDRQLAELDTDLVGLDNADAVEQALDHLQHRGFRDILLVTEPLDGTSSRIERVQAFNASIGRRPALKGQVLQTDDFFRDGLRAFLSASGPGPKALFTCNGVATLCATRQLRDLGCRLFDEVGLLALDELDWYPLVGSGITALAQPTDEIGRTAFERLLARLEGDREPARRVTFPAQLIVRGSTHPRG

PtxR R47A = PtxR R47A (Pseudomonas aeruginosa PAO1, UniProt P72131 1-312, R47A); assay: as above; settings: protein: recombinant; tags: C-terminal His6 (pET24b); chain copies: 4; blunt
PtxR D52A = PtxR D52A (Pseudomonas aeruginosa PAO1, UniProt P72131 1-312, D52A); assay: as above; settings: protein: recombinant; tags: C-terminal His6 (pET24b); chain copies: 4; blunt
PtxR E44A = PtxR E44A (Pseudomonas aeruginosa PAO1, UniProt P72131 1-312, E44A); assay: as above; settings: protein: recombinant; tags: C-terminal His6 (pET24b); chain copies: 4; blunt
PtxR S40A = PtxR S40A (Pseudomonas aeruginosa PAO1, UniProt P72131 1-312, S40A); assay: as above; settings: protein: recombinant; tags: C-terminal His6 (pET24b); chain copies: 4; blunt
PtxS [8] = biological target: B4; assay: native gel or EMSA; native polyacrylamide gel, 10 µM homogeneous PtxS, PtxR or both mixed, 1 h at 120 V, Coomassie stain, confirmed by western blot with an anti-His tag antibody; settings: both partners purified
PtxR [9] = biological target: B3; assay: ITC; free proteins; 50 µM PtxS in 3.2 µl aliquots into PtxR (3 µM by the legend); 20°C, 50 mM HEPES pH 7.9, 300 mM NaCl, 1 mM dithiothreitol, 10% glycerol; two binding site model; settings: both partners purified
PtxR [10] = biological target: B3; assay: ITC; 5 µM PtxR saturated beforehand with 50 µM duplex DNA of P_(toxA) holding the PtxR operator, titrated with 50 µM PtxS; 20°C, 50 mM HEPES pH 7.9, 300 mM NaCl, 1 mM dithiothreitol, 10% glycerol; two binding site model; settings: both partners purified

CAACTGATCGTTCGCGGCTCGACCCATCCACGCGGCTAGCGGCCCGCCGCCGGCGCGTTGCCGGCGGCTTTCGCACGGCTTGAAATGAAACCGGTTTCAGAGGATCGCCAATGTCCCTTCACCCCGTCTCCATCAGTCTTTCCAGCTATGGCGCGGACCTCGTTCGCAGTCGCGGCCAGGCCAGCTTCCTGCCCTTGCTGGCGATGGCCGGCGCGCAGCGCGTGGAACTGCGCGAGGAACTCTTCGCCGGCCCGCCGGATACCGAGGCGCTGACCGCCGCCATCCAGTT (double strand) [Pkgu promoter fragment]
binding [1]: binds | binding [2]: binds

CCGTTGACGGCCTTGTCATCGGGCATGGTGGGGTCCTCTCTGGATCATCACGGTTTCGTCTTTCTGATAATGATTAGCAGGCTAATTATAAGTTCATGTGTCACGTTGAAAAAACGTTTCAGCAAGGATTCAGGCAGGCCAATACCGGCAAGTGAAGCAGAACGGCGCGCCGGGCGTCGGCCCGGCGCGGCCTTCAGGCGCCTCGCCGTCGCGCCCAGGCCGAAGGATTGACCAGGTTCAGCGGCC (double strand) [Pgad promoter fragment]
binding [1]: binds | binding [2]: binds | binding [3]: binds | binding [4]: binds | binding [5]: binds

B1: PtoxA 50-mer mutant operator (dsDNA)
DNA 1: GATATCGGCTGCTGGCCAGGCCGACAGCCTCGTGCTTCAA
DNA 2: TTGAAGCACGAGGCTGTCGGCCTGGCCAGCAGCCGATATC
binding result (PtxR [6]): no binding

B2: PtoxA 50-mer (-58 to -8) (dsDNA)
DNA 1: GATATCGGCTGCTGGCCAGGGGCGCCAGCGCCGACAGCCTCGTGCTTCAA
DNA 2: TTGAAGCACGAGGCTGTCGGCGCTGGCGCCCCTGGCCAGCAGCCGATATC
binding result (PtxR K39A): no binding | binding result (PtxS [7]): no binding | Kd (PtxR [6]): 164 ± 6 nM | Kd (PtxR R47A): 240 ± 11 nM | binding result (PtxR D52A): no binding | binding result (PtxR E44A): no binding | binding result (PtxR S40A): no binding

B3
binding result (PtxS [8]): binds

B4
KD of the first, high affinity event (PtxR [9]): 12 ± 3 nM | KD of the second, lower affinity event (PtxR [9]): 102 ± 10 nM | dH of the first, high affinity event (PtxR [9]): -17.8 ± 0.9 kcal/mol | dH of the second, lower affinity event (PtxR [9]): -9.1 ± 0.5 kcal/mol | stoichiometry N (PtxR [9]): 1.02 | KD of the first event, PtxR bound to DNA (PtxR [10]): ~1700 nM | KD of the second event, PtxR bound to DNA (PtxR [10]): ~8200 nM
